# Residue numbers refer to the chain shown, from its start.
# T1: Recombinant Human IL-23 (human, UniProt Q9NPF7 20-189; P29460 23-328)
# T1 construct: Recombinant soluble cytokine; also called hIL-23
# T1 sequence (looked up) 1: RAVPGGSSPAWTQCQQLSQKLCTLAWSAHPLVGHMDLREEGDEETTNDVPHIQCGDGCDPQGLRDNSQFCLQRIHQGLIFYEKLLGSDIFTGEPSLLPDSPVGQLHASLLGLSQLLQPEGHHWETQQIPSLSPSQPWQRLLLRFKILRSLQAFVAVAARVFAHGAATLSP
# T1 sequence (looked up) 2: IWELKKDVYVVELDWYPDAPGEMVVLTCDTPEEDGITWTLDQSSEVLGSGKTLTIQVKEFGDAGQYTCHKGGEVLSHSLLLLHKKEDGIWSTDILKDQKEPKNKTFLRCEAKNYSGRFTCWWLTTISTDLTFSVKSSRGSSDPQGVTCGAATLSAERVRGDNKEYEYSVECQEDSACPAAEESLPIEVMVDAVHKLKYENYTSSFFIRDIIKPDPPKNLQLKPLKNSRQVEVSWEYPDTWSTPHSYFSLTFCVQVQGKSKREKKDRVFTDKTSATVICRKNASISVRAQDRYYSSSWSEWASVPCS
# B1: IL-23 antibody clone 203 (antibody, human IgG1, kappa, L234A L235A, V domains shown)
# VH: EVQLLESGGGLVQPGGSLRLSCAASGYTFTDQTIHWVRQAPGKGLEWIGYIYPRDDSPKYNENFKGRATLSADKSKNTAYLQMNSLRAEDTAVYYCAIPDRSGYAWFIYWGQGTTVTVSS
# VL: EIVMTQSPATLSVSPGERATLSCKASRDVAIAVAWYQQKPGQAPRLLLFWASTRHTGIPARFSGSGSRTEFTLTISSLQSEDFAVYYCHQYSSYPFTFGGGTKVEIKR
# notes: Full antibody format
# B2: IL-23 antibody clone 202 (antibody, human IgG1, kappa, L234A L235A, V domains shown)
# VH: B1 VH
# VL: B1 VL with F49Y
# notes: Full antibody format
# B3: Reference Antibody 1 (antibody, human IgG1, kappa, L234A L235A, V domains shown)
# VH: QVQLVQSGAEVKKPGSSVKVSCKASGYTFTDQTIHWMRQAPGQGLEWIGYIYPRDDSPKYNENFKGKVTITADKSTSTAYMELSSLRSEDTAVYYCAIPDRSGYAWFIYWGQGTLVTVSS
# VL: DIQMTQSPSSLSASVGDRVTITCKASRDVAIAVAWYQQKPGKVPKLLIYWASTRHTGVPSRFSGSGSRTDFTLTISSLQPEDVADYFCHQYSSYPFTFGSGTKLEIKR
# notes: also called anti-human IL-23p19 antibody; parental antibody
# B4: IL-23 antibody clone 107 (antibody, human IgG1, kappa, L234A L235A, V domains shown)
# VH: B3 VH with D31A, S57T, E62P, I108D
# VL: B3 VL
# Molecular target: T1, Recombinant Human IL-23
# Experiment: SPR (Biacore 8K), mAb captured on goat anti-human IgG CM5 chip, human IL-23 as analyte, 25 C, 1:1 model
# Experimental: (§1) Reference Antibody 1 was used as a comparator. […] Anti-IL23 mAb constructs (diluted to 2 μg/mL) were captured onto flow cell 2 (active) for 60 sec at a flow rate of 10 μL/min. Recombinant Human IL-23 was prepared at concentrations of 0, 1.23, 3.7, 11.11, 33.33, 100 nM and injected over flow cell 1 (reference) and flow cell 2 (active) for 180 sec at a flow rate of 50 μL/min. Samples were injected in a multi-cycle manner over freshly captured mAb, by regenerating the capture surfaces with injection of 10 mM glycine, pH 1.5 for 30 sec at a flow rate of 30 μL/min. A 1:1 kinetic binding model was utilized to determine the apparent association (kₐ) and dissociation […] rate constants. Their ratio provides the apparent equilibrium dissociation constant or affinity constant ([…]).
row,Binder,Kd [pM]
1,B1,< 6

# Molecular target: T1, Recombinant Human IL-23
# Experiment: SPR (Biacore 8K), mAb captured on anti-human IgG, human IL-23 as analyte, 25 C, 1:1 model; below the limit of detection
# Experimental: as §1
row,Binder,koff [s⁻¹]
1,B2,< 1e-06
2,B1,< 1e-06
3,B3,< 1e-06
4,B4,< 1e-06

# Molecular target: T1, Recombinant Human IL-23
# Experiment: cell-based or functional assay
row,Binder,"Relative IC50, inhibition of IL-23-induced phosphorylation of STAT3 in DB cells (pSTAT3 sandwich ELISA)"
1,B3,1 relative to Reference Antibody 1
2,B4,0.51 relative to Reference Antibody 1

# Molecular target: T1, Recombinant Human IL-23
# Experiment: cell-based or functional assay
# Remark: another data set of the same source
row,Binder,"Relative IC50, inhibition of IL-23-induced release of IL-17 from human PBMCs"
1,B2,0.79 relative to Reference Antibody 1
2,B1,0.78 relative to Reference Antibody 1
3,B3,1 relative to Reference Antibody 1
4,B4,0.67 relative to Reference Antibody 1

# Molecular target: T1, Recombinant Human IL-23
# Experiment: SPR (Biacore 8K), mAb captured on anti-human IgG, human IL-23 as analyte, 25 C, 1:1 model
# Experimental: as §1
row,Binder,kon [M⁻¹ s⁻¹]
1,B2,210000
2,B1,271000
3,B3,167000
4,B4,187000

# Molecular target: T1, Recombinant Human IL-23
# Experiment: cell-based or functional assay
# Remark: another data set of the same source
row,Binder,"Relative IC50, inhibition of IL-23-induced activation of STAT3 (luciferase reporter, HEK 293F IL-23R+/IL-12Rb1+ cells)"
1,B2,0.76 relative to Reference Antibody 1
2,B1,0.66 relative to Reference Antibody 1
3,B3,1 relative to Reference Antibody 1
4,B4,0.57 relative to Reference Antibody 1

# Source: patent publication US20250346660A1 (PARAGON THERAPEUTICS, published 2025)
